# Experimental data as given in publication PMC9006650, “Phosphorylation and acetylation of mitochondrial transcription factor A promote transcription processivity without compromising initiation or DNA compaction”.
# T1: TFAM (unmodified) (Homo sapiens, UniProt Q00059 43-246)
# T1 sequence: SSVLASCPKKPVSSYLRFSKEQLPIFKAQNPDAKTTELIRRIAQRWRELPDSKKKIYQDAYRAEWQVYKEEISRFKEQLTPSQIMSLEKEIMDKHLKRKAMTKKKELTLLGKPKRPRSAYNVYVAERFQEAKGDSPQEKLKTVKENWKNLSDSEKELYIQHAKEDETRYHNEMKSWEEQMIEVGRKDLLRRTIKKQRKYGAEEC
# B1: poly-T ssDNA 30-mer (ssDNA)
# DNA: TTTTTTTTTTTTTTTTTTTTTTTTTTTTTT
# Molecular target: T1, TFAM (unmodified)
# Assay: EMSA; 40 nM DNA; 50, 25, 12 bp per TFAM; no gel shift (legend: very low affinity); pUC19: 50 mM Tris-acetate pH 8.0, 100 mM K acetate, 5 mM Mg acetate, 1 mM DTT, 37 C 30 min, 1% agarose at 4 C; poly-T: 25 mM Tris-HCl pH 8.0, 70 mM NaCl, 10 mM
# Details: protein: recombinant; tags: N-terminal His6 removed with TEV protease; label: 5'-32P; single strand
binder,measurement,value
B1,binding result,no binding
